According to publication PMC3771942 (Molecular Biology of the Cell, 2013):

Biological target: GST-Rho-G17A (UniProt P61586 1-193, G17A)
Test: pull-down

GST-Rho-G17A, sequence (P61586 whole entry G17A): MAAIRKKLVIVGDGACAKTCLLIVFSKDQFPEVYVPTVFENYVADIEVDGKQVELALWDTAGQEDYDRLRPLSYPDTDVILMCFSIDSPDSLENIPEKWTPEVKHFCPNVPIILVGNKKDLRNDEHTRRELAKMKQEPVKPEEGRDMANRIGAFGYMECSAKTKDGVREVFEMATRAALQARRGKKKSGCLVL

B1: mCh-LARG-W769A (natural protein, UniProt Q9NZN5 1-1544, looked up)
chain: MSGTQSTITDRFPLKKPIRHGSILNRESPTDKKQKVERIASHDFDPTDSSSKKTKSSSEESRSEIYGLVQRCVIIQKDDNGFGLTVSGDNPVFVQSVKEDGAAMRAGVQTGDRIIKVNGTLVTHSNHLEVVKLIKSGSYVALTVQGRPPGSPQIPLADSEVEPSVIGHMSPIMTSPHSPGASGNMERITSPVLMGEENNVVHNQKVEILRKMLQKEQERLQLLQEDYNRTPAQRLLKEIQEAKKHIPQLQEQLSKATGSAQDGAVVTPSRPLGDTLTVSEAETDPGDVLGRTDCSSGDASRPSSDNADSPKSGPKERIYLEENPEKSETIQDTDTQSLVGSPSTRIAPHIIGAEDDDFGTEHEQINGQCSCFQSIELLKSRPAHLAVFLHHVVSQFDPATLLCYLYSDLYKHTNSKETRRIFLEFHQFFLDRSAHLKVSVPDEMSADLEKRRPELIPEDLHRHYIQTMQERVHPEVQRHLEDFRQKRSMGLTLAESELTKLDAERDKDRLTLEKERTCAEQIVAKIEEVLMTAQAVEEDKSSTMQYVILMYMKHLGVKVKEPRNLEHKRGRIGFLPKIKQSMKKDKEGEEKGKRRGFPSILGPPRRPSRHDNSAIGRAMELQKARHPKHLSTPSSVSPEPQDSAKLRQSGLANEGTDAGYLPANSMSSVASGASFSQEGGKENDTGSKQVGETSAPGDTLDGTPRTLNTVFDFPPPPLDQVQEEECEVERVTEHGTPKPFRKFDSVAFGESQSEDEQFENDLETDPPNAQQLVSREVLLGLKPCEIKRQEVINELFYTERAHVRTLKVLDQVFYQRVSREGILSPSELRKIFSNLEDILQLHIGLNEQMKAVRKRNETSVIDQIGEDLLTWFSGPGEEKLKHAAATFCSNQPFALEMIKSRQKKDSRFQTFVQDAESNPLCRRLQLKDIIPTQMQRLTKYPLLLDNIAKYTEWPTEREKVKKAADHCRQILNYVNQAVKEAENKQRLEDYQRRLDTSSLKLSEYPNVEELRNLDLTKRKMIHEGPLVWKVNRDKTIDLYTLLLEDILVLLQKQDDRLVLRCHSKILASTADSKHTFSPVIKLSTVLVRQVATDNKALFVISMSDNGAQIYELVAQTVSEKTVWQDLICRMAASVKEQSTKPIPLPQSTPGEGDNDEEDPSKLKEEQHGISVTGLQSPDRDLGLESTLISSKPQSHSLSTSGKSEVRDLFVAERQFAKEQHTDGTLKEVGEDYQIAIPDSHLPVSEERWALDALRNLGLLKQLLVQQLGLTEKSVQEDWQHFPRYRTASQGPQTDSVIQNSENIKAYHSGEGHMPFRTGTGDIATCYSPRTSTESFAPRDSVGLAPQDSQASNILVMDHMIMTPEMPTMEPEGGLDDSGEHFFDAREAHSDENPSEGDGAVNKEEKDVNLRISGNYLILDGYDPVQESSTDEEVASSLTLQPMTGIPAVESTHQQQHSPQNTHSDGAISPFTPEFLVQQRWGAMEYSCFEIQSPSSCADSQSQIMEYIHKIEADLEHLKKVEESYTILCQRLAGSALTDKHSDKS
- fold decrease in pull down against wild-type LARG: 5 fold
